No end group written: not given here.
Tests used:
[1] = biological target: CD40 on Rhesus macaque peripheral blood mononuclear cells / B cells (Rhesus macaque, UniProt F6SNI1 21-278); assay: cell-based or functional assay
[2] = biological target: T1, FLAG-tagged rhsCD40 (Alexis) (human, UniProt P25942 21-193, limits assumed); assay: ELISA, peptide and FLAG-tagged rhsCD40 (1 ug/ml), detected with HRP anti-FLAG antibody, TMB, OD 450 nm
T1 construct: Bought reagent (Alexis); also called recombinant human CD40; human CD40; not shown: FLAG tag
Method: Binding of the identified peptides to CD40 was analyzed by ELISA. Briefly, plates were coated with […] and then incubated with identified peptides and detected using Flag-tagged rhsCD40.
In order to confirm the specificity of the peptides to interfere with CD40:CD154 interaction, the specificity of peptides 1-7 as listed in table 1 to bind to human […] by ELISA was tested. Briefly, 96 well ELISA (Nunc Immunolon) plates were coated with the peptides in carbonate buffer. The wells are washed and probed with FLAG-tagged rhsCD40 (1 μg/ml; Alexis) and developed with HRP conjugated rabbit anti-FLAG antibody. The plates were washed and the enzymatic activity was determined using 3,3′,5,5′-tetramethyl-benzidine substrate for 15 minutes and the reaction was stopped by the addition of 2 M H2SO4, and optical density was measured at 450 nm, with the correction wavelength set at 620 nm.

T1 sequence (P25942 21-193 limits assumed): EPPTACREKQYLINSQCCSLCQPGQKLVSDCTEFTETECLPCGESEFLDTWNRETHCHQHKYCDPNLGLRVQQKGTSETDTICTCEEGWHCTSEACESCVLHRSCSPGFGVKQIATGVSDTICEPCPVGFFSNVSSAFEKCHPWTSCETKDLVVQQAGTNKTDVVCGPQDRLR

Binder | MHC class II expression on B cells after activation with recombinant hCD40L, peptide at 30 µM [1] [% reduction] | binding result [2]
VLQWAERGFYTTSNN (also: also made with a fluorescent label, dye and site not given here) [Peptide 2] | 50 | binds
VLQWAEKGYYTMSNN (also: also used fluorescently labelled (dye and position not given here), called cyclic, no cyclisation chemistry given, also called control Peptide 1) [Peptide 1 (control CD40-binding peptide)] | 50 | binds
VVQWAEKGFFTMSNN (also: also made with a fluorescent label, dye and site not given here) [Peptide 3] | 50 | binds

The next lines start with the values.

MHC class II expression on B cells after activation with recombinant hCD40L, peptide at 30 µM [1] [% reduction] | binding result [2] | Binder
50 | binds | VLNWADKAYFTMSQN (also: also made with a fluorescent label, dye and site not given here) [Peptide 4]
50 | binds | LLQWAERGYFMTSNN (also: also made with a fluorescent label, dye and site not given here) [Peptide 6]
50 | binds | VVQWAEKGYYTMSQN (also: also made with a fluorescent label, dye and site not given here) [Peptide 7]
50 | binds | LVNWADKAFYTTSNN (also: also made with a fluorescent label, dye and site not given here) [Peptide 5]
